Experimental data published in patent US10087225B2, “Formulation of MK2 inhibitor peptides” (MOERAE MATRIX, INC., priority 2015, dated 2018).

Key:
Assay in all cases: Kinase Profiling Assay
Type in all cases: biochemical
IR(h), activated = IR(h), activated (Homo sapiens, UniProt P06213)
PRAK(h) = molecular target: T1, PRAK(h) (Homo sapiens, UniProt Q8IW41)
T1 sequence (Q8IW41 1-473): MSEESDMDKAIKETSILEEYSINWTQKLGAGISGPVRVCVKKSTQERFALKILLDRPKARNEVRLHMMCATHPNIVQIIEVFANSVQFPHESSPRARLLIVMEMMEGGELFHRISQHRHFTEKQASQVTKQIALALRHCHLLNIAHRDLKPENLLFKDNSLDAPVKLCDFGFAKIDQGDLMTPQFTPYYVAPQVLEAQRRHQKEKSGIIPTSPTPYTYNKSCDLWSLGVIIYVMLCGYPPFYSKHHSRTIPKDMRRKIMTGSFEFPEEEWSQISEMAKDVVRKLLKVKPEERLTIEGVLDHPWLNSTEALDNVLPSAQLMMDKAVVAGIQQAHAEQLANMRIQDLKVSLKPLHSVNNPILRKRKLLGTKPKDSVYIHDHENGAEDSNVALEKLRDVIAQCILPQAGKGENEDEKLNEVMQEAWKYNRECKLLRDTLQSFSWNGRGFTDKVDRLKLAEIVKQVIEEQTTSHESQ

PKCα(h) = PKCα(h) (Homo sapiens, UniProt P17252); conditions: 100 μM
Syk(h) = Syk(h) (Homo sapiens, UniProt P43405); conditions: 100 μM
Rse(h) = molecular target: T2, Rse(h) (Homo sapiens, UniProt Q06418); conditions: 100 μM
T2 sequence (Q06418 41-890): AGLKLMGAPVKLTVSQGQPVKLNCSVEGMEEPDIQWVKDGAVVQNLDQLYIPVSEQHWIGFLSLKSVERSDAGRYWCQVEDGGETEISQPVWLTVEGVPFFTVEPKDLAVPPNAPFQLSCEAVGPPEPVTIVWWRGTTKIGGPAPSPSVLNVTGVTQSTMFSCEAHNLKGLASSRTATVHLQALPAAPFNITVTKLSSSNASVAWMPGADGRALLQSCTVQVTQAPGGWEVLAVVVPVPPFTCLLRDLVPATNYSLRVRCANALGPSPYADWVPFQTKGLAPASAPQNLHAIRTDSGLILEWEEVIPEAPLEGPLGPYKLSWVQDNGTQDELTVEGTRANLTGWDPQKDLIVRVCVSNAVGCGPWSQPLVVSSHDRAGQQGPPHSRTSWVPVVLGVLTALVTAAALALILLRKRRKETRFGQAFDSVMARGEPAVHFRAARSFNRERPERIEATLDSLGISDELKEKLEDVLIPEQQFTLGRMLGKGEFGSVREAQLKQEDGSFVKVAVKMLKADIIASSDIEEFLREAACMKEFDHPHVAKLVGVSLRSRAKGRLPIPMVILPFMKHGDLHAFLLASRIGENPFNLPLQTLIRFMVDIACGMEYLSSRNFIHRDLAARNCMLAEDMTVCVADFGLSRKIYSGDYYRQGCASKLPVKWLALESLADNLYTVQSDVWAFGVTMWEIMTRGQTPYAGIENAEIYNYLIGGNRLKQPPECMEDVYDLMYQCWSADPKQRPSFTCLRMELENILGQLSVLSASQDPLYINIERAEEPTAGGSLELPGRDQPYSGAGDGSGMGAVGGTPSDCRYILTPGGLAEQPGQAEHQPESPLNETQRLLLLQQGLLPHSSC

PKCθ(h) = PKCθ(h) (Homo sapiens, UniProt Q04759); conditions: 100 μM
LKB1(h) = molecular target: T3, LKB1(h) (Homo sapiens, UniProt Q15831); conditions: 100 μM
T3 sequence (Q15831 1-433): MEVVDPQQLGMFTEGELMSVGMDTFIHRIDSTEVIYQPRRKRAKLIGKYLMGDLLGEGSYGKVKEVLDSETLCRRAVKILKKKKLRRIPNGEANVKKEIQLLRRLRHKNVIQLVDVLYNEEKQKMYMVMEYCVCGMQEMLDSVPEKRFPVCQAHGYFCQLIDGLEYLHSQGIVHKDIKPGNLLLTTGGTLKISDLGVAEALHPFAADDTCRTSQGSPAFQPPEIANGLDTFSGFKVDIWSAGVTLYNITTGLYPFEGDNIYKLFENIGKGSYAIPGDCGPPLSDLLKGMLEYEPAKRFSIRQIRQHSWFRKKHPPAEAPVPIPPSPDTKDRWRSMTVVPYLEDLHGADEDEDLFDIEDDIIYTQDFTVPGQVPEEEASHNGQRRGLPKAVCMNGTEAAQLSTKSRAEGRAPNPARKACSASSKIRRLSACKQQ
T3 sequence (Q7RTN6 1-431 partner): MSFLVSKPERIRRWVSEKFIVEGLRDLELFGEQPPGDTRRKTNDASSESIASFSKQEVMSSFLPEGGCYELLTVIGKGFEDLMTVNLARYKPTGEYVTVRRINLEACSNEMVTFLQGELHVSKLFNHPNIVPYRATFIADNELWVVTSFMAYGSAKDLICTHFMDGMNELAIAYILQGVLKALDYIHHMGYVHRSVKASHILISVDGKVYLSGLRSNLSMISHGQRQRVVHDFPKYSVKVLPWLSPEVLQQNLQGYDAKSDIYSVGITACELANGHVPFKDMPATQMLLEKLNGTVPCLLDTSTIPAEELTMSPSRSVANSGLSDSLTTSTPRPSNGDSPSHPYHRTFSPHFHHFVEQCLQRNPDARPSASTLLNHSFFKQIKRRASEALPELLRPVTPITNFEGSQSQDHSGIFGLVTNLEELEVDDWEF
T3 sequence (Q9Y376 1-341 partner): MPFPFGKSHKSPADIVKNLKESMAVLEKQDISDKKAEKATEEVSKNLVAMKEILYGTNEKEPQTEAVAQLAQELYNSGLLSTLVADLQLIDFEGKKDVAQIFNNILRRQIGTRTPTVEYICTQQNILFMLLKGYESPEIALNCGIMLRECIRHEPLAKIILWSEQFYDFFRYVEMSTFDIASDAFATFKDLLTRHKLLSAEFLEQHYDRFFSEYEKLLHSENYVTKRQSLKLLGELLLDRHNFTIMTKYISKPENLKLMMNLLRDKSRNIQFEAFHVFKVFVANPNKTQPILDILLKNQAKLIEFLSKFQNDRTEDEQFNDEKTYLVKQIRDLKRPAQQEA

PAK5(h) = PAK5(h) (Homo sapiens, UniProt Q9P286); conditions: 100 μM
Flt3(h) = Flt3(h) (Homo sapiens, UniProt P36888); conditions: 100 μM
Fer(h) = Fer(h) (Homo sapiens, UniProt P16591); conditions: 100 μM
Chain of Fer(h) (P16591 whole entry): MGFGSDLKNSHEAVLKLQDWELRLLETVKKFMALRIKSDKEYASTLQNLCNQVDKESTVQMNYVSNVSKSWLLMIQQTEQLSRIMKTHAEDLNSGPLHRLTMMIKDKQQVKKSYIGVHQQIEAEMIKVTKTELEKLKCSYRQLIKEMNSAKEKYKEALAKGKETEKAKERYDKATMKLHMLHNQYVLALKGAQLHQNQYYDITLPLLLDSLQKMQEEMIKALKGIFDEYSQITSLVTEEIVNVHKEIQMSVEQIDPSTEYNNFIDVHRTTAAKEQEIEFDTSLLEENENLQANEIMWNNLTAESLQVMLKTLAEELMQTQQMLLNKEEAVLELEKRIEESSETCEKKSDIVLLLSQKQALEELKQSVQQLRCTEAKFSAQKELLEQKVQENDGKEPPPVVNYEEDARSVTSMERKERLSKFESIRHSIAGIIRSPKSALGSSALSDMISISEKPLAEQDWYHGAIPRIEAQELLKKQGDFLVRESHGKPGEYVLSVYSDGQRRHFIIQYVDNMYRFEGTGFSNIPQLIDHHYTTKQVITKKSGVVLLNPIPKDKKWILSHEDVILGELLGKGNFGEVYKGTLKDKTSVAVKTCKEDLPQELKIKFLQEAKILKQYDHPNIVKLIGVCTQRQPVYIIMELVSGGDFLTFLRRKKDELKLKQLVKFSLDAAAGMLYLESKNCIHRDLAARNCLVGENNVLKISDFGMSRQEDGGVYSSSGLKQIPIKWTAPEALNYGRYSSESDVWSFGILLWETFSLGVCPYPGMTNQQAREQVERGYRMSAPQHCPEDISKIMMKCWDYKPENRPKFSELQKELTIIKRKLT

Chain of PAK5(h) (Q9P286 whole entry): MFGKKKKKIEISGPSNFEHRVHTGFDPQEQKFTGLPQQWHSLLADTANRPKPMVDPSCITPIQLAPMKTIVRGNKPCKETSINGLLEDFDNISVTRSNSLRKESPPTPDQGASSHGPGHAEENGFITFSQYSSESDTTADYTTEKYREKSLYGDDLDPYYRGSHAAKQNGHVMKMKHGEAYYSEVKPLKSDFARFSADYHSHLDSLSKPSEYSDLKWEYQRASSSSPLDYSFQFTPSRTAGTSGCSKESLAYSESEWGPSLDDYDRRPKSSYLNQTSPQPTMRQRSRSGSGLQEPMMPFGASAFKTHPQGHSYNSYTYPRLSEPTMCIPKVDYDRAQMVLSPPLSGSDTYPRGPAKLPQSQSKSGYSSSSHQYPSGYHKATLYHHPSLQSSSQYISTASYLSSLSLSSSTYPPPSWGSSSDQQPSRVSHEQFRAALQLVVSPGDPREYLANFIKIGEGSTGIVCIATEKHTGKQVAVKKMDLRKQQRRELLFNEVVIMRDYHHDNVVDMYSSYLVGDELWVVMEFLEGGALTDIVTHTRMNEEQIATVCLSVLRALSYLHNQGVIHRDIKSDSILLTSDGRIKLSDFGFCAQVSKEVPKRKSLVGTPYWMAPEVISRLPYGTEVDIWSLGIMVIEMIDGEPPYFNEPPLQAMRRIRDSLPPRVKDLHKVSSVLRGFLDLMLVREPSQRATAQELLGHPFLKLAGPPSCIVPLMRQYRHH
Chain of PKCθ(h) (Q04759 whole entry): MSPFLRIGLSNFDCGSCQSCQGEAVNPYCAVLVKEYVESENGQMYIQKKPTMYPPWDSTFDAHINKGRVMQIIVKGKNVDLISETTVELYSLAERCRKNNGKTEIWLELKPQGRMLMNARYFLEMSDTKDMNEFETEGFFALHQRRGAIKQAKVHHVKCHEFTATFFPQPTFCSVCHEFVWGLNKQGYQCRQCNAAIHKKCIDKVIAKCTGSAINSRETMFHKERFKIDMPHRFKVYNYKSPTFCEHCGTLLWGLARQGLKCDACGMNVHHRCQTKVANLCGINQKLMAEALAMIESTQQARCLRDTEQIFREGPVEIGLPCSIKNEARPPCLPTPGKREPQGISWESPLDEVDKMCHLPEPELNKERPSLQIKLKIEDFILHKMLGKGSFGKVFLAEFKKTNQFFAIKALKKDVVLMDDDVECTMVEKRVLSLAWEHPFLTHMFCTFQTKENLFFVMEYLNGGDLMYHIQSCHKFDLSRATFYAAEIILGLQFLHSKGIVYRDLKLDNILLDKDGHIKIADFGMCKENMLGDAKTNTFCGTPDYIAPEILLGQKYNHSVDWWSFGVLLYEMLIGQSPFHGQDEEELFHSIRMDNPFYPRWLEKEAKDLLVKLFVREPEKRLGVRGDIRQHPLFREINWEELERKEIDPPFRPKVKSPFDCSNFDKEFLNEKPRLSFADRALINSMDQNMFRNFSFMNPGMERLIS

Row | Substance | activity at 100 µM (IR(h), activated) [%] | activity at 100 µM (PRAK(h)) [%] | % activity (PKCα(h)) [%] | % activity (Syk(h)) [%] | % activity (IR(h), activated; 100 μM) [%] | % activity (Rse(h)) [%] | % activity (PKCθ(h)) [%] | % activity (LKB1(h)) [%] | % activity (PAK5(h)) [%] | % activity (Flt3(h)) [%] | % activity (Fer(h)) [%] | % activity (PRAK(h); 100 μM) [%]
1 | H-YARAAARQARAKALARQLGVAA-OH [MMI-0100] | 127 | 159 | – | – | – | – | – | – | – | – | – | –
2 | HRRIKAWLKKIKALARQLGVAA (Mammalian) [MMI-0500] | – | – | 3 | 5 | 90 | 63 | 62 | 51 | 125 | 17 | 196 | 95
3 | YARAAARQARAKALNRQLGVA (Mammalian) [MMI-0200] | – | – | 100 | 36 | – | 88 | 101 | 99 | 100 | 99 | 101 | –
